Laboratory results reported in patent publication US7432061B2, “Assays for measuring matrix metalloproteinase activities” (BioZyme, Inc., priority 2002, dated 2008).

Key:
gelatinase B = gelatinase B (Homo sapiens, UniProt P14780); test: Inhibition with type II collagen, FlSub3 cleavage; assay type: biochemical; details: for Improvement In Selectivity (Gel-B v Col-3): 44 ug/ml Type II Collagen vs no Type II Collagen, FlSb3; for Average Percent Inhibition from 1.1 to 6.6 Hours / Average Percent Inhibition: GELB(.008 nM)
Experimental: (§1) In a 96 well plate, collagenase 3 (0.013 nM), collagenase 1 (1.25 nM), stromelysin 1 (0.8 nM), gelatinase A (0.025 nM), or gelatinase B (0.008 nM) were reacted with 20 uM FlSub3 in standard assay buffer in the presence of varying concentrations of bovine type II collagen (0.18-44 ug/ml). The type II collagen, a 1 mg/ml stock in 0.5M acetic acid, was transferred into assay buffer by passing the material through a biospin P6 column from Amersham. The reaction was initiated by addition of substrate to enzyme containing either buffer or an appropriate amount of type II collagen. Data points were taken every 15 min over a period of 15 hours using an excitation and emission wavelength of 350 and 485 nm respectively. The usable data (1-6 hours), was taken and the percent inhibition by type II collagen was calculated for each enzyme and plotted as a function of inhibitor concentration and time in the assay. It should be noted that the percent inhibition varies with time as the bovine substrate is consumed during the reaction course.

collagenase 3 = collagenase 3 (Homo sapiens, UniProt P45452); test: Inhibition with type II collagen, FlSub3 cleavage; assay type: biochemical; details: COL3(.013 nM)
Experimental: as §1

[1] = TypeIICOL(1.6 ug/ul), FISb3, hour 0.10 to 1.10
[2] = TypeIICOL(1.6 ug/ul), FISb3, hour 1.10 to 2.10
[3] = TypeIICOL(1.6 ug/ul), FISb3, hour 1.10 to 6.60
[4] = TypeIICOL(1.6 ug/ul), FISb3, hour 2.10 to 3.10
[5] = TypeIICOL(1.6 ug/ul), FISb3, hour 3.10 to 4.10
[6] = TypeIICOL(1.6 ug/ul), FISb3, hour 4.10 to 5.10
[7] = TypeIICOL(1.6 ug/ul), FISb3, hour 5.10 to 6.10
[8] = TypeIICOL(4.9 ug/ul), FISb3, hour 0.10 to 1.10
[9] = TypeIICOL(4.9 ug/ul), FISb3, hour 1.10 to 2.10
[10] = TypeIICOL(4.9 ug/ul), FISb3, hour 1.10 to 6.60
[11] = TypeIICOL(4.9 ug/ul), FISb3, hour 2.10 to 3.10
[12] = TypeIICOL(4.9 ug/ul), FISb3, hour 3.10 to 4.10
[13] = TypeIICOL(4.9 ug/ul), FISb3, hour 4.10 to 5.10
[14] = TypeIICOL(4.9 ug/ul), FISb3, hour 5.10 to 6.10
[15] = TypeIICOL(15 ug/ul), FISb3, hour 0.10 to 1.10
[16] = TypeIICOL(15 ug/ul), FISb3, hour 1.10 to 2.10
[17] = TypeIICOL(15 ug/ul), FISb3, hour 1.10 to 6.60
[18] = TypeIICOL(15 ug/ul), FISb3, hour 2.10 to 3.10
[19] = TypeIICOL(15 ug/ul), FISb3, hour 3.10 to 4.10

Chain of gelatinase B (P14780 94-707): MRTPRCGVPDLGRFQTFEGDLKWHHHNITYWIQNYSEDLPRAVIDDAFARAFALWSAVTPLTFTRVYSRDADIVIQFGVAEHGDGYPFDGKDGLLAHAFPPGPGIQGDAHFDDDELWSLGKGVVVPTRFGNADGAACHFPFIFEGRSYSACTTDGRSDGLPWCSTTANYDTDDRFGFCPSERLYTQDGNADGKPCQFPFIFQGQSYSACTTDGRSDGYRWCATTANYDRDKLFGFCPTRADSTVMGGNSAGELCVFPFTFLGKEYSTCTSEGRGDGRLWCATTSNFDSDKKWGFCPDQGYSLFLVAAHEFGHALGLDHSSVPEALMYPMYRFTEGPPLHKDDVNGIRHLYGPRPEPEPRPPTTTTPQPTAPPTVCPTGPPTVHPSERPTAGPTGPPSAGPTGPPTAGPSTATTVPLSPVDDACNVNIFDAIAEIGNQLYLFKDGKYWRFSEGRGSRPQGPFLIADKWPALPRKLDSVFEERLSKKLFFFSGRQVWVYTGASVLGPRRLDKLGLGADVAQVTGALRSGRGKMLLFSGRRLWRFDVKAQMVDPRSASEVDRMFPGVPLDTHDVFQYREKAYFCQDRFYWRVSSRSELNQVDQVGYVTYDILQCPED

**Q.** With “Type II Collagen: bovine type II collagen, full length MMP substrate used as inhibitor of gelatinases” as the substance, how does the “Improvement In Selectivity (Gel-B v Col-3)” value (gelatinase B) read?
**A.** 46 fold

**Q.** What about the “Improvement In Selectivity (Gel-B v Col-3)” value (gelatinase B; listed as collagen) of the same substance?
**A.** approximately 80 fold

**Q.** And the “Average Percent Inhibition from 1.1 to 6.6 Hours” value (gelatinase B; Type II Collagen 0.18 ug/ml)?
**A.** 9%

**Q.** What about the “Average Percent Inhibition from 1.1 to 6.6 Hours” value (gelatinase B; Type II Collagen 0.54 ug/ml) of the same substance?
**A.** 9%

**Q.** What about the “Average Percent Inhibition from 1.1 to 6.6 Hours” value (gelatinase B; Type II Collagen 1.63 ug/ml) of the same substance?
**A.** 12%

**Q.** What about the “Average Percent Inhibition from 1.1 to 6.6 Hours” value (gelatinase B; Type II Collagen 4.89 ug/ml) of the same substance?
**A.** 38%

**Q.** And the “Average Percent Inhibition from 1.1 to 6.6 Hours” value (gelatinase B; Type II Collagen 14.67 ug/ml)?
**A.** 65%

**Q.** What about the “Average Percent Inhibition from 1.1 to 6.6 Hours” value (gelatinase B; Type II Collagen 44.00 ug/ml) of the same substance?
**A.** 84%

**Q.** And the “Average Percent Inhibition” value (gelatinase B; [1])?
**A.** −28%

**Q.** What about the “Average Percent Inhibition” value (gelatinase B; [2]) of the same substance?
**A.** 14%

**Q.** What about the “Average Percent Inhibition” value (gelatinase B; [3]) of the same substance?
**A.** 12%

**Q.** And the “Average Percent Inhibition” value (gelatinase B; [4])?
**A.** 19%

**Q.** And the “Average Percent Inhibition” value (gelatinase B; [5])?
**A.** 15%

**Q.** And the “Average Percent Inhibition” value (gelatinase B; [6])?
**A.** 11%

**Q.** And the “Average Percent Inhibition” value (gelatinase B; [7])?
**A.** 7%

**Q.** What about the “Average Percent Inhibition” value (gelatinase B; [8]) of the same substance?
**A.** 35%

**Q.** What about the “Average Percent Inhibition” value (gelatinase B; [9]) of the same substance?
**A.** 43%

**Q.** And the “Average Percent Inhibition” value (gelatinase B; [10])?
**A.** 38%

**Q.** What about the “Average Percent Inhibition” value (gelatinase B; [11]) of the same substance?
**A.** 47%

**Q.** What about the “Average Percent Inhibition” value (gelatinase B; [12]) of the same substance?
**A.** 41%

**Q.** What about the “Average Percent Inhibition” value (gelatinase B; [13]) of the same substance?
**A.** 35%

**Q.** What about the “Average Percent Inhibition” value (gelatinase B; [14]) of the same substance?
**A.** 30%

**Q.** What about the “Average Percent Inhibition” value (gelatinase B; [15]) of the same substance?
**A.** 57%

**Q.** What about the “Average Percent Inhibition” value (gelatinase B; [16]) of the same substance?
**A.** 67%

**Q.** And the “Average Percent Inhibition” value (gelatinase B; [17])?
**A.** 65%

**Q.** What about the “Average Percent Inhibition” value (gelatinase B; [18]) of the same substance?
**A.** 72%

**Q.** What about the “Average Percent Inhibition” value (gelatinase B; [19]) of the same substance?
**A.** 69%

**Q.** And the “Average Percent Inhibition” value (gelatinase B; TypeIICOL(15 ug/ul), FISb3, hour 4.10 to 5.10)?
**A.** 64%

**Q.** What about the “Average Percent Inhibition” value (gelatinase B; TypeIICOL(15 ug/ul), FISb3, hour 5.10 to 6.10) of the same substance?
**A.** 59%

**Q.** What about the “Average Percent Inhibition” value (gelatinase B; TypeIICOL(44 ug/ul), FISb3, hour 0.10 to 1.10) of the same substance?
**A.** 41%

**Q.** What about the “Average Percent Inhibition” value (gelatinase B; TypeIICOL(44 ug/ul), FISb3, hour 1.10 to 2.10) of the same substance?
**A.** 82%

**Q.** And the “Average Percent Inhibition” value (gelatinase B; TypeIICOL(44 ug/ul), FISb3, hour 1.10 to 6.60)?
**A.** 84%

**Q.** And the “Average Percent Inhibition” value (gelatinase B; TypeIICOL(44 ug/ul), FISb3, hour 2.10 to 3.10)?
**A.** 87%

**Q.** And the “Average Percent Inhibition” value (gelatinase B; TypeIICOL(44 ug/ul), FISb3, hour 3.10 to 4.10)?
**A.** 87%

**Q.** What about the “Average Percent Inhibition” value (gelatinase B; TypeIICOL(44 ug/ul), FISb3, hour 4.10 to 5.10) of the same substance?
**A.** 85%

**Q.** What about the “Average Percent Inhibition” value (gelatinase B; TypeIICOL(44 ug/ul), FISb3, hour 5.10 to 6.10) of the same substance?
**A.** 83%

**Q.** And the “Average Percent Inhibition” value (gelatinase B; TypeIICOL(.18 ug/ul), FISb3, hour 0.10 to 1.10)?
**A.** 3%

**Q.** What about the “Average Percent Inhibition” value (gelatinase B; TypeIICOL(.18 ug/ul), FISb3, hour 1.10 to 2.10) of the same substance?
**A.** 12%

**Q.** And the “Average Percent Inhibition” value (gelatinase B; TypeIICOL(.18 ug/ul), FISb3, hour 1.10 to 6.60)?
**A.** 9%

**Q.** And the “Average Percent Inhibition” value (gelatinase B; TypeIICOL(.18 ug/ul), FISb3, hour 2.10 to 3.10)?
**A.** 11%

**Q.** And the “Average Percent Inhibition” value (gelatinase B; TypeIICOL(.18 ug/ul), FISb3, hour 3.10 to 4.10)?
**A.** 9%

**Q.** What about the “Average Percent Inhibition” value (gelatinase B; TypeIICOL(.18 ug/ul), FISb3, hour 4.10 to 5.10) of the same substance?
**A.** 7%

**Q.** And the “Average Percent Inhibition” value (gelatinase B; TypeIICOL(.18 ug/ul), FISb3, hour 5.10 to 6.10)?
**A.** 5%

**Q.** What about the “Average Percent Inhibition” value (gelatinase B; TypeIICOL(.55 ug/ul), FISb3, hour 0.10 to 1.10) of the same substance?
**A.** 3%

**Q.** What about the “Average Percent Inhibition” value (gelatinase B; TypeIICOL(.55 ug/ul), FISb3, hour 1.10 to 2.10) of the same substance?
**A.** 10%

**Q.** And the “Average Percent Inhibition” value (gelatinase B; TypeIICOL(.55 ug/ul), FISb3, hour 1.10 to 6.60)?
**A.** 9%

**Q.** And the “Average Percent Inhibition” value (gelatinase B; TypeIICOL(.55 ug/ul), FISb3, hour 2.10 to 3.10)?
**A.** 12%

**Q.** And the “Average Percent Inhibition” value (gelatinase B; TypeIICOL(.55 ug/ul), FISb3, hour 3.10 to 4.10)?
**A.** 10%

**Q.** And the “Average Percent Inhibition” value (gelatinase B; TypeIICOL(.55 ug/ul), FISb3, hour 4.10 to 5.10)?
**A.** 8%

**Q.** What about the “Average Percent Inhibition” value (gelatinase B; TypeIICOL(.55 ug/ul), FISb3, hour 5.10 to 6.10) of the same substance?
**A.** 6%

**Q.** And the “inhibition of gelatinase B by type II collagen” value (gelatinase B; highest concentration (44 ug/ml), six hour time course, FlSub3)?
**A.** Almost complete inhibition

**Q.** What about the “Average Percent Inhibition from 1.1 to 6.6 Hours” value (collagenase 3; Type II Collagen 0.18 ug/ml) of the same substance?
**A.** −8%

**Q.** And the “Average Percent Inhibition from 1.1 to 6.6 Hours” value (collagenase 3; Type II Collagen 0.54 ug/ml)?
**A.** −11%

**Q.** And the “Average Percent Inhibition from 1.1 to 6.6 Hours” value (collagenase 3; Type II Collagen 1.63 ug/ml)?
**A.** −11%

**Q.** And the “Average Percent Inhibition from 1.1 to 6.6 Hours” value (collagenase 3; Type II Collagen 4.89 ug/ml)?
**A.** −28%

**Q.** What about the “Average Percent Inhibition from 1.1 to 6.6 Hours” value (collagenase 3; Type II Collagen 14.67 ug/ml) of the same substance?
**A.** −44%

**Q.** What about the “Average Percent Inhibition from 1.1 to 6.6 Hours” value (collagenase 3; Type II Collagen 44.00 ug/ml) of the same substance?
**A.** −53%

**Q.** What about the “Average Percent Inhibition” value (collagenase 3; [1]) of the same substance?
**A.** 16%

**Q.** What about the “Average Percent Inhibition” value (collagenase 3; [2]) of the same substance?
**A.** −4%

**Q.** And the “Average Percent Inhibition” value (collagenase 3; [3])?
**A.** −11%

**Q.** What about the “Average Percent Inhibition” value (collagenase 3; [4]) of the same substance?
**A.** −15%

**Q.** What about the “Average Percent Inhibition” value (collagenase 3; [5]) of the same substance?
**A.** −13%

**Q.** What about the “Average Percent Inhibition” value (collagenase 3; [6]) of the same substance?
**A.** −12%

**Q.** What about the “Average Percent Inhibition” value (collagenase 3; [7]) of the same substance?
**A.** −11%

**Q.** And the “Average Percent Inhibition” value (collagenase 3; [8])?
**A.** 8%

**Q.** What about the “Average Percent Inhibition” value (collagenase 3; [9]) of the same substance?
**A.** −31%

**Q.** What about the “Average Percent Inhibition” value (collagenase 3; [10]) of the same substance?
**A.** −28%

**Q.** And the “Average Percent Inhibition” value (collagenase 3; [11])?
**A.** −38%

**Q.** And the “Average Percent Inhibition” value (collagenase 3; [12])?
**A.** −31%

**Q.** And the “Average Percent Inhibition” value (collagenase 3; [13])?
**A.** −25%

**Q.** And the “Average Percent Inhibition” value (collagenase 3; [14])?
**A.** −21%

**Q.** And the “Average Percent Inhibition” value (collagenase 3; [15])?
**A.** 6%

**Q.** And the “Average Percent Inhibition” value (collagenase 3; [16])?
**A.** −48%

**Q.** And the “Average Percent Inhibition” value (collagenase 3; [17])?
**A.** −44%

**Q.** And the “Average Percent Inhibition” value (collagenase 3; [18])?
**A.** −59%

**Q.** And the “Average Percent Inhibition” value (collagenase 3; [19])?
**A.** −50%
